Columns and labels:
[1] = biological target: T7 gp4 K318A primase (Bacteriophage T7) (UniProt P03692); conditions: amplification with Phi29 and T7 DNA polymerase; 10 mM MgCl2, NTPs, 30 C
[2] = tested on: T1, ORF904 primase (residues 1-370) (Sulfolobus islandicus); conditions: primer synthesis inferred from primer-free amplification with Phi29, 1500 ng primase vs Phi29 only; 10 mM MgCl2, 1 mM ATP, 30 C
T1 sequence: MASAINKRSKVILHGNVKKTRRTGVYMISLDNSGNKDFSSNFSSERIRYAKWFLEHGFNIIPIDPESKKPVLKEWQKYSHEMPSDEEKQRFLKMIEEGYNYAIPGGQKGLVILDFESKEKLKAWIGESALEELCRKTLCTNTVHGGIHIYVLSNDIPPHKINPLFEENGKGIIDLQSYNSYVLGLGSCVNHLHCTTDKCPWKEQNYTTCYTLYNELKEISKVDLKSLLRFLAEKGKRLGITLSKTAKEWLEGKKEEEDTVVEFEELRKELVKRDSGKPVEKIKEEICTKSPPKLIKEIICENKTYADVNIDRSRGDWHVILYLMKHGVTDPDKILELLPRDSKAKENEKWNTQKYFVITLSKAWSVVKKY

With M13 ssDNA (M13mp18) the activity [1] was 4000 fold and the activity [2] was 13 fold.

— patent US20110294167
